Consider eleven sequences from the supplement of paper PMC10724198.

± gives the standard deviation of the averaged measurements.

For this data set, the system named is Saccharomyces cerevisiae. Kind of data set: protein stability index of tFT-peptide fusion (C-terminal peptide) (PSI (0-1 scale)); higher = more stable (slower turnover). On the procedure: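 MPS profiling in S. cerevisiae of the tFT-X12 degron library: putative degron peptides plus stable controls, 12 aa, fused to the C-terminus of a sfGFP-mCherry timer. Cells are FACS-sorted into 8 mCherry/sfGFP bins and deep-sequenced. PSI runs from 0 (unstable) to 1 (stable). Backgrounds are wild type, das1Δ and doa10Δ at 30 °C, and wild type, das1Δ, cdc34-1 and cdc53-1 at 37 °C; 2-3 technical replicates each.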

Setting [1] is: genetic background: cdc34-1, temperature: 37 C.
The mark [2] stands for this setting: genetic background: cdc53-1, temperature: 37 C.
The mark [3] stands for this setting: genetic background: das1 deletion, temperature: 30 C.
Setting [4] is: genetic background: das1 deletion, temperature: 37 C.
The mark [5] stands for this setting: genetic background: doa10 deletion, temperature: 30 C.
[6] abbreviates: genetic background: wild type, temperature: 30 C.
Where [7] appears, read: genetic background: wild type, temperature: 37 C.
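Further: PSI is a weighted mean of sequencing reads over stability bins, variants kept only with over 10 reads, mCherry proximal and sfGFP distal, peptide attached via GGGS linker.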

Turning to FFFWLLCAGWLL, the protein stability index came out at 0.661 ± 0.01 under setting [1]; 0.622 ± 0.012 under setting [2]; 0.544 ± 0.044 under setting [3]; 0.656 ± 0.0071 under setting [4]; 0.551 ± 0.041 under setting [5]; 0.534 ± 0.0081 under setting [6]. The protein stability index under setting [7] worked out at 0.649 ± 0.0073.
For the sequence GAQQRVKERYIE, the protein stability index under setting [1] worked out at 0.648 ± 0.012; the protein stability index under setting [2] amounted to 0.721 ± 0.027; the protein stability index under setting [3] was 0.636 ± 0.028; the protein stability index under setting [4] was found to be 0.7346 ± 0.0027; the protein stability index under setting [5] was determined as 0.6157 ± 0.0038; the protein stability index under setting [6] was found to be 0.646 ± 0.03. The same sequence showed a protein stability index under setting [7] of 0.741 ± 0.00086.
On to GGGGVFGVWVWM, for which the protein stability index by setting is: under setting [1], 0.533 ± 0.058; under setting [2], 0.618 ± 0.018; under setting [3], 0.511 ± 0.013; under setting [4], 0.656 ± 0.0086; under setting [5], 0.23 ± 0.017; under setting [6], 0.272 ± 0.024. The same sequence showed a protein stability index under setting [7] of 0.494 ± 0.014.
Regarding GRTDFSTLLLIC, the protein stability index is, setting by setting: under setting [1], 0.491 ± 0.016; under setting [2], 0.6912 ± 0.0053; under setting [3], 0.564 ± 0.018; under setting [4], 0.683 ± 0.019; under setting [5], 0.106 ± 0.012; under setting [6], 0.132 ± 0.039. The protein stability index under setting [7] stood at 0.16 ± 0.056.
As to HSAIFLFFFFFG, the protein stability index under setting [1] is 0.283 ± 0.11; the protein stability index under setting [2] worked out at 0.4553 ± 0.0042; the protein stability index under setting [3] worked out at 0.314 ± 0.022; the protein stability index under setting [4] amounted to 0.444 ± 0.03; the protein stability index under setting [5] was 0.331 ± 0.051; the protein stability index under setting [6] stood at 0.296 ± 0.024. The protein stability index under setting [7] is 0.401 ± 0.034.
On to LLFFGFVGSCVF, for which the protein stability index is, setting by setting: under setting [1], 0.6341 ± 0.0023; under setting [2], 0.6187 ± 0.0052; under setting [3], 0.468 ± 0.028; under setting [4], 0.671 ± 0.041; under setting [5], 0.471 ± 0.047; under setting [6], 0.485 ± 0.036. Under setting [7], this sequence returned a protein stability index of 0.57 ± 0.0036.
Turning to LPPHSASLSSSF, the protein stability index is, setting by setting: under setting [1], 0.701 ± 0.054; under setting [2], 0.7591 ± 0.0059; under setting [3], 0.635 ± 0.029; under setting [4], 0.725 ± 0.011; under setting [5], 0.665 ± 0.015; under setting [6], 0.675 ± 0.022. The sequence further yielded a protein stability index under setting [7] of 0.704 ± 0.013.
NAAVQSGGRVAG yielded a protein stability index under setting [1] of 0.67 ± 0.043; a protein stability index under setting [2] of 0.722 ± 0.05; a protein stability index under setting [3] of 0.638 ± 0.01; a protein stability index under setting [4] of 0.733 ± 0.0013; a protein stability index under setting [5] of 0.645 ± 0.025; a protein stability index under setting [6] of 0.646 ± 0.0076. Under setting [7], this sequence registered a protein stability index of 0.696 ± 0.016.
Take PACPPLPPRSPS: the protein stability index by setting is: under setting [1], 0.634 ± 0.0068; under setting [2], 0.7142 ± 0.0047; under setting [3], 0.693 ± 0.028; under setting [4], 0.737 ± 0.017; under setting [5], 0.688 ± 0.069; under setting [6], 0.7 ± 0.015. This sequence also returned a protein stability index under setting [7] of 0.7 ± 0.024.
For RPPHPPPATFLS, the protein stability index runs as follows: under setting [1], 0.617 ± 0.064; under setting [2], 0.7 ± 0.0084; under setting [3], 0.679 ± 0.018; under setting [4], 0.727 ± 0.0097; under setting [5], 0.226 ± 0.025; under setting [6], 0.253 ± 0.025. The same sequence gave a protein stability index under setting [7] of 0.487 ± 0.021.
On to RWRLWVGWGVVG, for which the protein stability index worked out at 0.621 ± 0.034 under setting [1]; 0.688 ± 0.022 under setting [2]; 0.521 ± 0.0056 under setting [3]; 0.691 ± 0.039 under setting [4]; 0.425 ± 0.029 under setting [5]; 0.368 ± 0.078 under setting [6]. The sequence also registered a protein stability index under setting [7] of 0.533 ± 0.059.
